Changes are numbered by the printed parent chain. “And” between values parts separate entries of the source, which are not always exact repeats. Equal entries are not always repeated.
How the values were obtained:
[1] = biological target: T1, human interferon-gamma (IFN-γ) (human, UniProt P01579 24-161); experiment: cell-based or functional assay
T1 sequence (looked up): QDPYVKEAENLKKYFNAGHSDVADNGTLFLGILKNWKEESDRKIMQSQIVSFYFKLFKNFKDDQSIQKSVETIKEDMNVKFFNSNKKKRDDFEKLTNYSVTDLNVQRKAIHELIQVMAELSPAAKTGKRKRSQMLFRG

[2] = biological target: T1, human interferon-gamma (IFN-γ); experiment: ELISA on plates coated with recombinant IFN-γ, antibody purified from hybridoma supernatant
huIFN-γR34 = biological target: T2, huIFN-γR34 (human, UniProt P01579 24-161); experiment: cell-based or functional assay
T2 sequence (looked up): T1 sequence (looked up) with K34R

huIFN-γI77 = biological target: T3, huIFN-γI77 (human, UniProt P01579 24-161); experiment: cell-based or functional assay
T3 sequence (looked up): T1 sequence (looked up) with M77I

huIFN-γV110 = biological target: T4, huIFN-γV110 (human, UniProt P01579 24-161); experiment: cell-based or functional assay
T4 sequence (looked up): T1 sequence (looked up) with I110V

cynomolgus monkey IFN-γ = biological target: T5, cynomolgus monkey IFN-γ (cynomolgus monkey, UniProt P63309 24-165); experiment: cell-based or functional assay
T5 sequence (looked up): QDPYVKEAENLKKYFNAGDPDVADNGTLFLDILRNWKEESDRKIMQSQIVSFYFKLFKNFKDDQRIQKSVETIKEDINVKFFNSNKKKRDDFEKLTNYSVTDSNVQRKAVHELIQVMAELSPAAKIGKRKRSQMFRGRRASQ

huIFN-γP20 = biological target: T6, huIFN-γP20 (human, UniProt P01579 24-161); experiment: cell-based or functional assay
T6 sequence (looked up): T1 sequence (looked up) with S20P

huIFN-γD19 = biological target: T7, huIFN-γD19 (human, UniProt P01579 24-161); experiment: cell-based or functional assay
T7 sequence (looked up): T1 sequence (looked up) with H19D

huIFN-γS103 = biological target: T8, huIFN-γS103 (human, UniProt P01579 24-161); experiment: cell-based or functional assay
T8 sequence (looked up): T1 sequence (looked up) with L103S

huIFN-γI126 = biological target: T9, huIFN-γI126 (human, UniProt P01579 24-161); experiment: cell-based or functional assay
T9 sequence (looked up): T1 sequence (looked up) with T126I

huIFN-γR65 = biological target: T10, huIFN-γR65 (human, UniProt P01579 24-161); experiment: cell-based or functional assay
T10 sequence (looked up): T1 sequence (looked up) with S65R

huIFN-γD31 = biological target: T11, huIFN-γD31 (human, UniProt P01579 24-161); experiment: cell-based or functional assay
T11 sequence (looked up): T1 sequence (looked up) with G31D

[3] = biological target: T1, human interferon-gamma (IFN-γ); experiment: equilibrium-binding assay in solution, free antibody captured on IFN-γ coupled beads, KinExA
Experimental: Binding kinetics for several of the antibodies to IFN-γ were measured by BIAcore analysis. […] Accordingly, an equilibrium-binding assay was developed and used. A fixed amount of antibody was incubated with various concentrations of IFN-γ for greater than 5 hours in order to reach equilibrium and then contacted with IFN-γ coupled beads for a very brief time, and the amount of free antibody that bound to the beads was measured in a KINEXA™ machine (Sapidyne Instruments Inc., Boise, Id.), a fluorescence based immunoassay instrument. The lowest equilibrium dissociation constant obtained, ˜24 pM, was with the 1119 antibody.

B1: 1121 anti-IFN-γ antibody (antibody, V domains shown)
VH: EVQLVQSGAEVKKPGESLKISCKGSGYNFTSYWIGWVRQMPGKGLEWMGIIYPGDSDTRYSPSFQGQVTISADKSISTAYLQWSSLKASDTAMYYCGSGSYWYFDLWGRGTLVTVSS
VL: EIVLTQSPGTLSLSPGERATLSCRASQSVSSSYLAWYQQKPGQAPRLLIYGASSRATGIPDRFSGSGSGTDFTLTISRLEPEDFAVYYCQRSGGSSFTFGPGTKVDIKR
- IC50, A549 bioassay (inhibition of the anti-proliferative effect of IFN-γ, 30 pM IFN-γ) [1]: 46 pM
- IC50, THP-1/HLA DR bioassay (21 pM IFN-γ) [1]: 60 pM

B2: 1121* anti-IFN-γ antibody (antibody, human IgG1, kappa, V domains shown)
VH: B1 VH
VL: EIVLTQSPGTLSLSPGERATLSCRASQSIISSYLAWYQQKPGQTPRLLIYGVSSRATGIPDRFSGSGSGTDFTLTITRLEPEDFAVYYCQQYGNSFMYTFGQGTKLEIKR
notes: the ELISA used antibody purified from hybridoma supernatant
- binding result [2]: binds

B3: 1118 anti-IFN-γ antibody (antibody, V domains shown)
VH: B1 VH with N28S
VL: B1 VL with Y33S
- IC50, A549 bioassay (inhibition of the anti-proliferative effect of IFN-γ, 30 pM IFN-γ) [1]: 97 pM
- IC50, THP-1/HLA DR bioassay (21 pM IFN-γ) [1]: 86 pM

B4: 1119 anti-IFN-γ antibody (antibody, human IgG1, kappa, V domains shown)
VH: B1 VH with W47L, W102F
VL: B1 VL
notes: also called 1119 antibody; 1119 mAb
- % Neutralization by 1119 (A549 bioassay) (huIFN-γR34): 109%
- % Neutralization by 1119 (A549 bioassay) (huIFN-γI77): 108%
- % Neutralization by 1119 (A549 bioassay) (huIFN-γV110): 103%
- % Neutralization by 1119 (A549 bioassay) (cynomolgus monkey IFN-γ): 0%
- % Neutralization by 1119 (A549 bioassay) (huIFN-γP20): 0%
- % Neutralization by 1119 (A549 bioassay) (huIFN-γD19): 0%
- % Neutralization by 1119 (A549 bioassay) (huIFN-γS103): 102%
- % Neutralization by 1119 (A549 bioassay) (huIFN-γI126): 109%
- % Neutralization by 1119 (A549 bioassay) (huIFN-γR65): 109%
- % Neutralization by 1119 (A549 bioassay) (huIFN-γD31): 103%
- Kd [3]: ~0.024 nM
- IC50, A549 bioassay (inhibition of the anti-proliferative effect of IFN-γ, 30 pM IFN-γ) [1]: 14 pM
- IC50, THP-1/HLA DR bioassay (21 pM IFN-γ) [1]: 14 pM
- IC50, human whole blood bioassay (IFN-γ-induced IP-10 production), one of two donors [1]: 0.017 nM and 0.014 nM
